We go through one molecule from doi:10.1101/2021.10.29.466484, “Clamping of DNA shuts the condensin neck gate” (bioRxiv, 2021).

The target of one assay is T1, Ycs4 (S. cerevisiae, UniProt Q06156 1-1176).
T1 construct: Ycs4, HAWK subunit of budding yeast (S. cerevisiae) condensin, wild type
T1 sequence: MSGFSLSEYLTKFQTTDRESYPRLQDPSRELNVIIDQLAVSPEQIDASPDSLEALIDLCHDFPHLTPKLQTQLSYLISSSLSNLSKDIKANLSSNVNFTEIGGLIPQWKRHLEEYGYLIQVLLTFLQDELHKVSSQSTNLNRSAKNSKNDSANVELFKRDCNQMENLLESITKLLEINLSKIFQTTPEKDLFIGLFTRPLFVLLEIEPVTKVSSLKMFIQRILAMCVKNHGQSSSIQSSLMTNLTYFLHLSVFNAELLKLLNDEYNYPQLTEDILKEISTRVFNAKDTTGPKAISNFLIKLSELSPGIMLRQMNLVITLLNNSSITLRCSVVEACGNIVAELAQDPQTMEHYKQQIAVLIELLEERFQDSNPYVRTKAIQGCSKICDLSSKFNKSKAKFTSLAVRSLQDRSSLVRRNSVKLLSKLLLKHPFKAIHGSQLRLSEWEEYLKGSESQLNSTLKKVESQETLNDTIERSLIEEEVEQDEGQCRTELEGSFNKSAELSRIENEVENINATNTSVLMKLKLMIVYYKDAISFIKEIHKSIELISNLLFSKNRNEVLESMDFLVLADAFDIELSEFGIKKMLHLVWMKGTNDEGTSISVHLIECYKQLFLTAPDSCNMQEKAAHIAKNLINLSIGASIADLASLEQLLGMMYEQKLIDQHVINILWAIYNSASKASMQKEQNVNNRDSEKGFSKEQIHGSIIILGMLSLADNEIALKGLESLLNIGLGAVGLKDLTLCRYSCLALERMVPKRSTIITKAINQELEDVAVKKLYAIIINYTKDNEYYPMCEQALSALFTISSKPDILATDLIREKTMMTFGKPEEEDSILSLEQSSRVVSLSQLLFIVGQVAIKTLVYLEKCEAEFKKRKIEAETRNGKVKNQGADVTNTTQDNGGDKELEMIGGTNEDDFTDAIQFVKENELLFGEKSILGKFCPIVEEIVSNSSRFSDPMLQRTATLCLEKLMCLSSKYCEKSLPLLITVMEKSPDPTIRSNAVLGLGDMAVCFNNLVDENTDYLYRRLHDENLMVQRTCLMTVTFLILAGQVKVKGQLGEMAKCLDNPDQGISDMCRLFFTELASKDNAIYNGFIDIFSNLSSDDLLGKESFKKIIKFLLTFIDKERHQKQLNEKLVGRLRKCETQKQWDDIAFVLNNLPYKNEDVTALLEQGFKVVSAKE
Kind of assay: cryo-EM structure; condensin pentamer with relaxed circular DNA, ADP and BeF3; VPP and non-VPP datasets merged; maps at 8.75 and 8.95 Å. To be noted: both partners purified.

A further assay deals with T2, Smc2 (S. cerevisiae, UniProt P38989 1-1170).
T2 construct: Smc2, SMC subunit of budding yeast (S. cerevisiae) condensin, wild type; Expressed from pGAL10-SMC2 together with the other subunits; Only the head domain and proximal coiled coil are resolved in the maps
T2 sequence: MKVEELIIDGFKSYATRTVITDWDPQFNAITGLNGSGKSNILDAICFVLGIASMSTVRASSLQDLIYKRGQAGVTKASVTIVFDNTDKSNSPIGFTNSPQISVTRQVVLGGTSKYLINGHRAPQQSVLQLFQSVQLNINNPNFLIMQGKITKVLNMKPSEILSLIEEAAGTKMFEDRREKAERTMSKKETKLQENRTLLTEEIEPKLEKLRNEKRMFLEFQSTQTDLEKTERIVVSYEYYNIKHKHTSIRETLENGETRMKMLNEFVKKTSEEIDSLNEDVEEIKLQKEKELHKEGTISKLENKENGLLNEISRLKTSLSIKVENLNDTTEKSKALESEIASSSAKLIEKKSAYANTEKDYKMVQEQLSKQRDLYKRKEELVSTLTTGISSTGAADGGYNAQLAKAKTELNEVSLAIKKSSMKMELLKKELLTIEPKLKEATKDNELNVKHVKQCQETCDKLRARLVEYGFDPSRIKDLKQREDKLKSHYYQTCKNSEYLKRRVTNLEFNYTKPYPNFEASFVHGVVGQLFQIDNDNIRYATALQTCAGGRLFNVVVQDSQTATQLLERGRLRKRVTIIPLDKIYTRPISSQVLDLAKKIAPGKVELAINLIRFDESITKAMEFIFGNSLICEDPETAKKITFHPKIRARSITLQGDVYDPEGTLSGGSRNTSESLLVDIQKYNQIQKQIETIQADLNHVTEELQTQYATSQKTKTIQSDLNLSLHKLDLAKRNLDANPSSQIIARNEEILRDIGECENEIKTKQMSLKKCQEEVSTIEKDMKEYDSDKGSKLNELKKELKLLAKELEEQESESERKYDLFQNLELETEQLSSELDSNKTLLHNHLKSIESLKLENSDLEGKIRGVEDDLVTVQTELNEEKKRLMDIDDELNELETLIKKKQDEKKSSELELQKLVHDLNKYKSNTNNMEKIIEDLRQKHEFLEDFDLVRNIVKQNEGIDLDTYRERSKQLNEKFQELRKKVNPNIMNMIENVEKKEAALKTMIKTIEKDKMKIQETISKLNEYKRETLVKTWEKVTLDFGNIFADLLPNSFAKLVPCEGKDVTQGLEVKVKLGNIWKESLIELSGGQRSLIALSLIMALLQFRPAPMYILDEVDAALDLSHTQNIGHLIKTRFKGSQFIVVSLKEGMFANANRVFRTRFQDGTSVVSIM
Described as above. To be noted: both partners purified.

B1: Brn1 (natural protein, S. cerevisiae)
chain: MTTQLRYENNDDDERVEYNLFTNRSTMMANFEEWIKMATDNKINSRNSWNFALIDYFYDLDVLKDGENNINFQKASATLDGCIKIYSSRVDSVTTETGKLLSGLAQRKTNGASNGDDSNGGNGEGLGGDSDEANIEIDPLTGMPISNDPDVNNTRRRVYNRVLETTLVEFETIKMKELDQELIIDPLFKKALVDFDEGGAKSLLLNTLNIDNTARVIFDASIKDTQNVGQGKLQRKEEELIERDSLVDDENEPSQSLISTRNDSTVNDSVISAPSMEDEILSLGMDFIKFDQIAVCEISGSIEQLRNVVEDINQAKDFIENVNNRFDNFLTEEELQAAVPDNAEDDSDGFDMGMQQELCYPDENHDNTSHDEQDDDNVNSTTGSIFEKDLMAYFDENLNRNWRGREHWKVRNFKKANLVNKESDLLEETRTTIGDTTDKNTTDDKSMDTKKKHKQKKVLEIDFFKTDDSFEDKVFASKGRTKIDMPIKNRKNDTHYLLPDDFHFSTDRITRLFIKPGQKMSLFSHRKHTRGDVSSGLFEKSTVSANHSNNDIPTIADEHFWADNYERKEQEEKEKEQSKEVGDVVGGALDNPFEDDMDGVDFNQAFEGTDDNEEASVKLDLQDDEDHKFPIRENKVTYSRVSKKVDVRRLKKNVWRSINNLIQEHDSRKNREQSSNDSETHTEDESTKELKFSDIIQGISKMYSDDTLKDISTSFCFICLLHLANEHGLQITHTENYNDLIVNYEDLATTQAAS
notes: Brn1, kleisin subunit of budding yeast (S. cerevisiae) condensin, wild type; also called kleisin Brn1; BRN1-HA3-His12
B1: the binding result with Ycs4 and in the assay with Smc2 was “binds” throughout.
